Measured values from the supplement of paper PMC9233669.
This sample holds only a part of the variants without activity.

How the values were obtained:
biotinyl-Trp-oxazolone = experiment: self-aminoacylation, catalytic enhancement (BWO) (fold over background); higher = more active; k-Seq, kA / k0A0; sequences stand for … in GGGAAUGGAUCCACAUCUACGAAUUC…UUCACUGCAGACUUGACGAAGCUG
Procedure, shortened: (§1)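 Mutagenized RNA pools with a 21-nt variable region (0.43 μM) reacted with each biotinyl-aminoacyl-oxazolone at 2–1250 μM. Reactions ran in 50 μL HEPES/NaCl/KCl/MgCl2/CaCl2 buffer with 5% acetonitrile, pH 6.9–7.0, for 90 minutes at room temperature. Streptavidin-captured RNA was quantified by triplicate qPCR and Illumina sequencing, and per-sequence fraction reacted was fit to a pseudo-first-order model with 1000 bootstraps. Catalytic enhancement is median kA divided by the uncatalyzed rate, the low-activity peak of a bimodal Gaussian fit.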

biotinyl-Leu-oxazolone = experiment: self-aminoacylation, catalytic enhancement (BLO) (fold over background); higher = more active; k-Seq, kA / k0A0; sequences stand for … in GGGAAUGGAUCCACAUCUACGAAUUC…UUCACUGCAGACUUGACGAAGCUG
Procedure, shortened: as §1

biotinyl-Phe-oxazolone = experiment: self-aminoacylation, catalytic enhancement (BFO) (fold over background); higher = more active; k-Seq, kA / k0A0; sequences stand for … in GGGAAUGGAUCCACAUCUACGAAUUC…UUCACUGCAGACUUGACGAAGCUG
Procedure, shortened: as §1

biotinyl-Val-oxazolone = experiment: self-aminoacylation, catalytic enhancement (BVO) (fold over background); higher = more active; k-Seq, kA / k0A0; sequences stand for … in GGGAAUGGAUCCACAUCUACGAAUUC…UUCACUGCAGACUUGACGAAGCUG
Procedure, shortened: as §1

biotinyl-Ile-oxazolone = experiment: self-aminoacylation, catalytic enhancement (BIO) (fold over background); higher = more active; k-Seq, kA / k0A0; sequences stand for … in GGGAAUGGAUCCACAUCUACGAAUUC…UUCACUGCAGACUUGACGAAGCUG
Procedure, shortened: as §1

biotinyl-Met-oxazolone = experiment: self-aminoacylation, catalytic enhancement (BMO) (fold over background); higher = more active; k-Seq, kA / k0A0; sequences stand for … in GGGAAUGGAUCCACAUCUACGAAUUC…UUCACUGCAGACUUGACGAAGCUG
Procedure, shortened: as §1

Sequence | self-aminoacylation (biotinyl-Trp-oxazolone) | self-aminoacylation (biotinyl-Leu-oxazolone) | self-aminoacylation (biotinyl-Phe-oxazolone) | self-aminoacylation (biotinyl-Val-oxazolone) | self-aminoacylation (biotinyl-Ile-oxazolone) | self-aminoacylation (biotinyl-Met-oxazolone)
CUACUUCAAACAAGCGGUCUA [Fam1A.1 aminoacylation ribozyme variant] | 0.669 | 0.73 | 0.85 | 0.707 | 0.936 | 0.838
AUUCUCCUUGGUCAUCGGGUG [Fam2.2 aminoacylation ribozyme variant] | 9.53 | 13.8 | 75 | 7.53 | 6.85 | 9.71
AUUACCCUGCCCAUCGAGUGA [Fam2.1 aminoacylation ribozyme variant] | 6.52 | 5.53 | 38.9 | 3.23 | 2.94 | 5.7
AUUAUCCUGGUCAUCGAGUGG [Fam2.1 aminoacylation ribozyme variant] | 4.05 | 5.03 | 6.09 | 2.27 | 2.19 | 5.06
CAACAAUUCAAGCAAUCGGUC [Fam1B.1 aminoacylation ribozyme variant] | 1.31 | 1.01 | 1.71 | 0.937 | 1.16 | 1.1
GUUACCCUAGUCAUCGAGUGA [Fam2.1 aminoacylation ribozyme variant] | 7.77 | 6.93 | 28.1 | 3.33 | 3.81 | 6.66
CCAGACUUCAAGCGAUCGGUC [Fam1B.1 aminoacylation ribozyme variant] | 1.82 | 1.83 | 1.63 | 1.8 | 1.36 | 1.17
AUUACCCUGAUCACCGAGUGA [Fam2.1 aminoacylation ribozyme variant] | 6.75 | 7.42 | 42.1 | 3.74 | 3.08 | 7.33
AUUACCCUGGUCAUCGCGCGA [Fam2.1 aminoacylation ribozyme variant] | 3.18 | 6.23 | 36.7 | 5.24 | 5.07 | 4.45
AUUACCCUGGCCAUCGAGUGG [Fam2.1 aminoacylation ribozyme variant] | 1.66 | 1.95 | 2.71 | 1.17 | 1.26 | 1.72
CUACUUCAAACCAUCGUUCUG [Fam1A.1 aminoacylation ribozyme variant] | 0.478 | 0.553 | 0.66 | 0.59 | 0.689 | 0.525
AUUACGCUGGUCAUGGAGUGA [Fam2.1 aminoacylation ribozyme variant] | 3.44 | 2.76 | 5.28 | 2.39 | 2.29 | 2.67
CAGUUUGCUAAUAAUCGCAAG [Fam3.1 aminoacylation ribozyme variant] | 0.939 | 0.99 | 1.1 | 1.03 | 0.97 | 1
AGUCCCCUGGUCAUCGAGUGA [Fam2.1 aminoacylation ribozyme variant] | 7.41 | 6.55 | 42.6 | 4.13 | 3.3 | 6.67
AUUACUCUGGUUAUCGAGUGA [Fam2.1 aminoacylation ribozyme variant] | 10.5 | 8.76 | 51.3 | 4.2 | 4.17 | 8.17
AUCCACCUAGGUCAGCGGGUG [Fam2.2 aminoacylation ribozyme variant] | 4.43 | 5.2 | 31.2 | 4.02 | 3.68 | 3.79
AGUCACCUAGGUCAUAGGGUG [Fam2.2 aminoacylation ribozyme variant] | 2.56 | 2.56 | 9.22 | 2.17 | 2.18 | 3.12
CUACUUCAUACAAUUGGUCUG [Fam1A.1 aminoacylation ribozyme variant] | 0.453 | 0.731 | 0.656 | 0.849 | 0.743 | 0.755
AAGUUUGCUAAUGGGCGCAAG [Fam3.1 aminoacylation ribozyme variant] | 1.5 | 1.08 | 0.784 | 0.874 | 0.937 | 0.695
AAGUCUGCGAAUAGUCGCAAG [Fam3.1 aminoacylation ribozyme variant] | 1.2 | 1.38 | 8.07 | 0.979 | 1 | 1.76
GUUCACCCAGGUCAUCGGGUG [Fam2.2 aminoacylation ribozyme variant] | 3.77 | 5.02 | 29.1 | 3.64 | 3.12 | 3.77
CCACACUUAAAGCGAUCGGUC [Fam1B.1 aminoacylation ribozyme variant] | 0.934 | 1 | 0.793 | 1.18 | 1.23 | 0.963
AUUCACCUACGCCAUCGGGUG [Fam2.2 aminoacylation ribozyme variant] | 3.52 | 4.34 | 21.9 | 2.11 | 2.1 | 3.6
AUUCACCUAGUGCAUCGGGUG [Fam2.2 aminoacylation ribozyme variant] | 1.17 | 2.12 | 5.22 | 1.63 | 1.35 | 1.62
CGACUACAAACAAUCGGUCUG [Fam1A.1 aminoacylation ribozyme variant] | 1.31 | 0.926 | 2.44 | 1.15 | 1.09 | 1.22
AUUACCCUGAUCAUGGAGUGA [Fam2.1 aminoacylation ribozyme variant] | 13 | 10.5 | 53.6 | 4.92 | 4.86 | 10.8

Sequence | self-aminoacylation (biotinyl-Trp-oxazolone) | self-aminoacylation (biotinyl-Leu-oxazolone) | self-aminoacylation (biotinyl-Phe-oxazolone) | self-aminoacylation (biotinyl-Val-oxazolone) | self-aminoacylation (biotinyl-Ile-oxazolone) | self-aminoacylation (biotinyl-Met-oxazolone)
AUCACCCUGGGCAUCGAGUGA [Fam2.1 aminoacylation ribozyme variant] | 11.2 | 13.1 | 69.7 | 5.3 | 4.64 | 10.6
AAGGUUGCUAAUAGUCGCGAG [Fam3.1 aminoacylation ribozyme variant] | 1.64 | 0.991 | 2.49 | 1.5 | 1.56 | 1.64
AUUCACCUAGGUCCUCGAGUG [Fam2.2 aminoacylation ribozyme variant] | 1.18 | 2.12 | 3.5 | 1.38 | 1.26 | 1.36
AUUACCAUGGUCGUCGAGUGA [Fam2.1 aminoacylation ribozyme variant] | 1.48 | 1.25 | 0.902 | 1.08 | 1.21 | 1.3
CCACACUUCAAGCACCCGGUC [Fam1B.1 aminoacylation ribozyme variant] | 2.07 | 1.64 | 0.709 | 1.75 | 1.55 | 1.74
AUUACCGUGGACAUCGAGUGA [Fam2.1 aminoacylation ribozyme variant] | 5.62 | 3.92 | 3.62 | 2.68 | 2.29 | 3.47
AUCCACCUAGUUCAUCGGGUG [Fam2.2 aminoacylation ribozyme variant] | 4.63 | 4.83 | 24.1 | 3.24 | 2.9 | 3.53
AAGUUUUCUAAUAGUAGCAAG [Fam3.1 aminoacylation ribozyme variant] | 1.8 | 1.33 | 2.5 | 1.34 | 1.5 | 1.29
CCACACUUCAAGUGAUCGGUC [Fam1B.1 aminoacylation ribozyme variant] | 1.24 | 0.951 | 1.72 | 1.06 | 1.04 | 1.1
UUUCACCUAGAUCAUCGGGUG [Fam2.2 aminoacylation ribozyme variant] | 3.04 | 2.82 | 16.5 | 2.58 | 2.35 | 2.58
ACUAACCUAGGUCAUCGGGUG [Fam2.2 aminoacylation ribozyme variant] | 6.91 | 8.64 | 40.7 | 3.36 | 5.7 | 6.8
AUCCACCGAGGUCAUCGGGUG [Fam2.2 aminoacylation ribozyme variant] | 7.06 | 13.4 | 125 | 6.67 | 5.2 | 9.91
AAGUGUUCUAAUAGUCGCAAG [Fam3.1 aminoacylation ribozyme variant] | 1.54 | 1.64 | 2.39 | 1.32 | 1.6 | 1.7
AUUGACCGAGGUCAUCGGGUG [Fam2.2 aminoacylation ribozyme variant] | 8.13 | 11 | 54.8 | 4.8 | 4.88 | 8.11
AUUGCCCUGGUCAGCGAGUGA [Fam2.1 aminoacylation ribozyme variant] | 6.28 | 5.65 | 36.7 | 3.76 | 3.29 | 5.91
CUACUUCAAUCAAUCGGUUUG [Fam1A.1 aminoacylation ribozyme variant] | 15.1 | 1.21 | 26.6 | 0.96 | 0.895 | 0.886
AAGUUUUCUACUAGUCGCAAG [Fam3.1 aminoacylation ribozyme variant] | 1.86 | 1.79 | 3.09 | 1.51 | 1.99 | 1.67
AUGUUUGCUAGUAGUCGCAAG [Fam3.1 aminoacylation ribozyme variant] | 0.975 | 0.911 | 1.15 | 0.827 | 0.957 | 1.15
AUUACCCUGAUUAUCGAGUGA [Fam2.1 aminoacylation ribozyme variant] | 22 | 17.4 | 117 | 7.28 | 7.51 | 17.9
AUUACCCUGGUCAUCGAGUGA [Fam2.1 aminoacylation ribozyme variant] | 99.1 | 86.9 | 657 | 37.9 | 34.6 | 91.3
AUUCUCCUAGGUCAUCGGGCG [Fam2.2 aminoacylation ribozyme variant] | 4.23 | 5.06 | 13.6 | 3.43 | 3.24 | 3.97
CUACAUCAAACAAUCGGGCUG [Fam1A.1 aminoacylation ribozyme variant] | 1.29 | 0.965 | 0.764 | 1.3 | 1.36 | 1.44
AGUACCCUGGUCAUCGACUGA [Fam2.1 aminoacylation ribozyme variant] | 1.01 | 0.974 | 0.572 | 1.07 | 1.34 | 1.1
AUUACCAUGGUCAUAGAGUGA [Fam2.1 aminoacylation ribozyme variant] | 10 | 8.72 | 37.6 | 3.51 | 4.13 | 8.44
CCACACUUGAACCAAUCGGUC [Fam1B.1 aminoacylation ribozyme variant] | 0.742 | 0.635 | 0.969 | 0.819 | 0.804 | 0.673
